Where no end group is shown, it is not given here. [ ]: non-standard residue; d: D form. pGlu = O=C1CC[C@@H](C(=O)O)N1

For one experiment, the system named is G17RM. The experiment in a line: Balb/c mice immunized with TYG100 vaccine, serum IgG titre against G17RM. The conditions noted are these: peptide immunized without the warhead, Example 14. It counts as in vivo, mouse. As to the method:
6 Balb/c Mice were immunized 3 times on day 0, day 14 and day 35 with TYG100_1RM or G17_1RM (without warhead) containing rhesus monkey G17 (58.4 μg/shot in 0.5 ml). Two weeks after last immunization, serum was taken and analyzed for the presence of IgG antibodies against G17RM, G17H and G17M (=G17 from the mouse)
6 Balb/c Mice were immunized 3 times on day 0, day 14 and day 35 with TYG100_2RM containing the first 13 immuno acids of rhesus monkey G17 (66.8 μg/shot in 0.5 ml). Two weeks after last immunization, serum was taken and analyzed for the presence of IgG antibodies against G17RM, G17H and G17M (=G17 from the mouse)

The test system of the next experiment is mAb IV.3. The experiment in a line: Mice immunized with ScFV-1-coil or warhead, serum IgG1 and IgG2a ELISA against mAb IV.3. It counts as in vivo, mouse. The settings on record: s.c. 2× 35 μg d0, d14, on Alum or in PBS, sera day 28. As to the method:
(§1) 24 mice (6/group) were immunized s.c. 2× with 35 μg in 150 μl ScFV-1-coil or with warhead (ScFV-1-coil-M362) either formulated on Alum or diluted in PBS. Immunizations were done on d0, and d14, sera were taken on d0 (before immunization) and d28 and analyzed for IgG1 and IgG2a against ScFV-1-coil (indicated as ScFV) and mAb IV.3 by standard ELISA.
(In general: An ELISA detects its analyte on a solid surface through an enzyme-linked reagent.)

The subject of the next experiment is ScFV-1-coil. The experiment in a line: Mice immunized with ScFV-1-coil or warhead, serum IgG1 and IgG2a ELISA against ScFV-1-coil. It counts as in vivo. The settings on record: s.c. 2× 35 μg d0, d14, on Alum or in PBS, sera day 28. As to the method:
as §1

The test system of experiment [1] is PBMC of Der p1 sensitized rhesus monkeys. Put plainly: Warhead mediated enhanced antigen presentation, PBMC proliferation (Example 7). In kind it is cell-based, rhesus monkeys (macaca mulatta). As to the method: […] proliferation (assayed by the incorporation of [^3H]-thymidine) of Rhesus monkey (macaca mulatta) T cells after pre incubation for 30 ‘on ice with respectively warhead and Der p1 or warhead and immunogen 3. After each pre-incubation the cells were washed. (bdl=below detection limit). • Only when the immunogen could interact with the warhead through its coil (immunogen3) T cell proliferation in a dose dependent fashion could be seen. […] As positive control Der p1 is shown to be reactive after overnight incubation (without washing). • Warhead mediated antigen uptake is more efficient than uptake through pinocytosis
PBMC (100.000/well) of Der p1 sensitized rhesus monkeys (macaca mulatta) were preincubated (30 min on ice) with 1 μg/ml of warhead ScFV and washed 3 times with PBS or preincubated with PBS only and washed three times. Subsequently these cells incubated (30 min on ice) with different concentrations of Immunogen 3 or Der p1 at 3 μg/ml and washed 3 times with PBS after which the cells were culture at 37° C./5% CO2 in the presence of 20 U/ml IL-2 for 48 hours. As a positive control PBMCs (without warhead preincubation) were incubated with 3 μg/ml Der Pb without washing and cultured at 37° C./5% CO2 in the presence of 20 U/ml IL-2. Proliferation was assayed by the incorporation of [^3H]-thymidine (0.5 μCi/well) during the final 18 hrs of a 2-day culture. Cells were harvested for β-scintillation counting (Topcount NXT, Packard, Ramsey, Minn., USA). Results are shown as counts per minute.

Experiment [2] shares this test system. Put plainly: IL-10 and GM-CSF ELISA in supernatants of PBMC of Der p1 sensitized rhesus monkeys (Example 6). The settings on record: 3 and 5 μg/ml immunogen 3 vs Der p1, parallel cultures. In kind it is cell-based, rhesus monkeys (macaca mulatta). As to the method: (§2) PBMCs from Der p1 sensitized rhesus monkeys (macaca mulatta) were cultured in triplicate with Der p1 or immunogen 3. Proliferation was assayed by the incorporation of [^3H]-thymidine. Results are shown as counts per minute.
(§3) PBMC (100.000/well) of Der p1 sensitized rhesus monkeys (macaca mulatta) were cultured in triplicate with medium, 3 Der p1 or 3 and 5 μg/ml immunogen 3 at 37° C./5% CO2. in the presence of 20 U/ml IL-2. Proliferation was assayed by the incorporation of [^3H]-thymidine (0.5 μCi/well) during the final 18 hrs of a 2-day culture. Cells were harvested for β-scintillation counting (Topcount NXT, Packard, Ramsey, Minn., USA). Results are shown as counts per minute. In addition from parallel cultures, supernatants were assayed in duplicate for IL-10 and GM-CSF levels using a commercially-available ELISA kit (U-Cytech, Utrecht, The Netherlands) in accordance with the manufacturer's instructions.

Experiment [3] shares this test system. The experiment in a line: Proliferation ([3H]-thymidine) of PBMC of Der p1 sensitized rhesus monkeys (Example 6). The settings on record: 3 and 5 μg/ml immunogen 3 vs Der p1, 2-day culture, 20 U/ml IL-2. In kind it is cell-based, rhesus monkeys (macaca mulatta). As to the method:
as §2, §3

In experiment [4] the test system is PBMC of Der p1 sensitized normal donors. The experiment in a line: Stimulation of human PBMC with immunogen 5-12, IL-10 and IFNg ELISA (Example 10). It counts as cell-based. The conditions noted are these: 24 h, 5, 1 or 0.5 μg/ml vs 3 μg/ml Der p1. As to the method:
PBMCs of healthy human donors were cultured for 24 h in triplicate with Der p1 or immunogen 5. Supernatants were harvested and assayed for IL-10 and […] levels (each indicated as pg/ml; BDL=below detection limit) • Human T cells respond equally well to immunogen 5 as to Der p1, as measured by IL-10 and IFNg induction.
PBMC (100.000/well) of Der p1 sensitized normal donors were cultured in triplicate with medium, 3 μg/ml Der p1 or 5, 1 or 0.5 μg/ml immunogen 5-12 (Immo5-12) at 37° C./5% CO2 for 24 h. Supernatants were assayed in duplicate for IL-10 and IFNg levels using a commercially-available ELISA kits (eBioscience) in accordance with the manufacturer's instructions.

[5] abbreviates: PBMC preincubated with 1 μg/ml warhead ScFV, washed, incubated 30 min on ice with antigen, cultured 48 hours.

As for “[pGlu]GPWMEEEEAAYGGGSGGKVSALKEKVSALKEKVSALKEKVSALKEKVSALKE [G17-peptide]”, in the experiment with G17RM, the “response against G17” value is reported as “no response”.

B1: warhead (conjugate)
scFv: EVQLQQSGPELKKPGETVKISCKASGYTFTNYGMNWVKQAPGKGLKWMGWLNTYTGESIYPDDFKGRFAFSSETSASTAYLQINNLKNEDMATYFCARGDYGYDDPLDYWGQGTSVTVSSGGGGSGGGGSGGGGSDIVMTQAAPSVPVTPGESVSISCRSSKSLLHTNGNTYLHWFLQRPGQSPQLLIYRMSVLASGVPDRFSGSGSGTAFTLSISRVEAEDVGVFYCMQHLEYPLTFGAGTKLELKGSISAWSHPQFEKGPEVSALEKEVSALEKEVSALEKEVSALEKEVSALEK
As for B1, in the experiment on mAb IV.3, the “IgG1 response to mAb IV.3” value is “strong” and the “IgG2a response to mAb IV.3” value is reported as “strong”. In the experiment with ScFV-1-coil, the “IgG1 response to ScFV-1-coil” value was “strong” and the “IgG2a response to ScFV-1-coil” value was “strong”.

B2: ScFV-1-coil: SEQ ID 70: ScFV derived from anti-CD32a mAb IV.3 with StrepTag II and pepE coil (protein)
scFv: EVQLQQSGPELKKPGETVKISCKASGYTFTNYGMNWVKQAPGKGLKWMGWLNTYTGESIYPDDFKGRFAFSSETSASTAYLQINNLKNEDMATYFCARGDYGYDDPLDYWGQGTSVTVSSGGGGSGGGGSGGGGSDIVMTQAAPSVPVTPGESVSISCRSSKSLLHTNGNTYLHWFLQRPGQSPQLLIYRMSVLASGVPDRFSGSGSGTAFTLSISRVEAEDVGVFYCMQHLEYPLTFGAGTKLELKGSISAWSHPQFEKGPEVSALEKEVSALEKEVSALEKEVSALEKEVSALEK
modifications: ScFV-coil
In the case of B2, in the experiment with ScFV-1-coil, the “IgG1 response to ScFV-1-coil” value is “only in the presence of Alum” and the “IgG2a response to ScFV-1-coil” value is “no IgG2a response”.

B3: immunogen 3: SEQ ID 23/74: Der P1 and Der P2 T cell epitopes with His tag, linker and pepK coil (protein)
chain 1: HHHHHHYYRYVAREQSCRRPNAQRFGISNYCQIYPPNVNKIREALAQTHSAIAVDLRQMRTVTPIRMQGGCGSCWAFSGVAATESAYLQQYDIKYTWNVPKIAPKSENVVVTVKVMGDDGVLACAIATHAKIRDDAFRHYDGRTIIQRDNGYQPNYHAVNIVGYSNAQGVDYWIVRNSWDTNWHEIKKVLVPGCHGSEPCIIHRGKPFGGGSGGGSCGGKVSALKEKVSALKEKVSALKEKVSALKEKVSALKE
chain 2: HHHHHHYYRYVAREQSCRRPNAQRFGISNYCQIYPPNVNKIREALAQTHSAIAVDLRQMRTVTPIRMQGGCGSCWAFSGVAATESAYLQQYDIKYTWNVPKIAPKSENVVVTVKVMGDDGVLACAIATHAKIRDDAFRHYDGRTIIQRDNGYQPNYHAVNIVGYSNAQGVDYWIVRNSWDTNWHEIKKVLVPGCHGSEPCIIHRGKPFGGGSGGGSGGKVSALKEKVSALKEKVSALKEKVSALKEKVSALKE
modifications: Immunogen-coil
Consider B3, for which the “proliferation of PBMC” value in experiment [1] (setting [5]) is reported as “dose dependent stimulation”; in experiment [1] (preincubated immunogen in the absence of warhead (data not shown)), “did not lead to proliferation”. Further, the “stimulation relative to positive control” value in experiment [1] (after warhead ScFV preincubation, positive control = PBMC cultured 48 h with 3 μg/ml Der p1 without washing) is “even higher than the positive control”. Besides, the “cytokine production (IL-10 and GM-CSF), response compared with Der p1” value in experiment [2] is recorded as “non-significant difference”. The “proliferation, response compared with Der p1” value in experiment [3] was “non-significant difference”.

B4: Der p1: house dust mite allergen used as comparator antigen (protein)
chain: TNACSINGNAPAEIDLRQMRTVTPIRMQGGCGSCWAFSGVAATESAYLAYRNQSLDLAEQELVDCASQHGCHGDTIPRGIEYIQHNGVVQESYYRYVAREQSCRRPNAQRFGISNYCQIYPPNVNKIREALAQTHSAIAVIIGIKDLDAFRHYDGRTIIQRDNGYQPNYHAVNIVGYSNAQGVDYWIVRNSWDTNWGDNGYGYFAANIDLMMIEEYPYVVIL
As to B4, in experiment [1] (setting [5]), the “proliferation of PBMC” value was “did not lead to proliferation”.

B5: immunogen 5: SEQ ID 30/75: ~29 T cell epitopes of ten Der p allergens with His tag, linkers and pepK coil (protein)
chain 1: GVLACAIATHAKIREQERLVKLETVKKSLEQEVRTLHVRIEEVEANALAGGDLRQMRTVTPIRMQGGCGSCWEAHEQQIRIMTTKLKEAEARQQYDIKYTWNVPKIAVNIVGYSNAQGVDYWIVRNSWDTNWYHNPHFIGNRSVITHLMEDLKGELDMRNIQVRGLKQMKRVGDANVKSEDDAFRHYDGRTIIQRDNGYQPNYLDEYWILTAAHCVDGQTVSKLIRSKVLGEKISYYRYVAREQSCRRPNAQRFGISNYCVVVTVKVMGDDELHTYFNVNYTMHYYLNNGATRDILDEYWILTAAHCVAGQTASKLSIRYNSLKHSLFKYRPFKVNELNLEGEFGRELQHKFRLMRNSQMEVEEGGGSHHHHHHGGGSCGGKVSALKEKVSALKEKVSALKEKVSALKEKVSALKE
chain 2: GVLACAIATHAKIREQERLVKLETVKKSLEQEVRTLHVRIEEVEANALAGGDLRQMRTVTPIRMQGGCGSCWEAHEQQIRIMTTKLKEAEARQQYDIKYTWNVPKIAVNIVGYSNAQGVDYWIVRNSWDTNWYHNPHFIGNRSVITHLMEDLKGELDMRNIQVRGLKQMKRVGDANVKSEDDAFRHYDGRTIIQRDNGYQPNYLDEYWILTAAHCVDGQTVSKLIRSKVLGEKISYYRYVAREQSCRRPNAQRFGISNYCVVVTVKVMGDDELHTYFNVNYTMHYYLNNGATRDILDEYWILTAAHCVAGQTASKLSIRYNSLKHSLFKYRPFKVNELNLEGEFGRELQHKFRLMRNSQMEVEEGGGSHHHHHHGGGSCGGKVSALKEKVSALKEKVSALKEKVSALKEKVSALKE
modifications: Immunogen-coil
As to B5, in experiment [4], the “IFNg induction, response compared with Der p1” value is on record as “equally well” and the “IL-10 induction, response compared with Der p1” value was “equally well”.
